The nature of this data set: soluble fraction after stress (log2 fold change); higher = more stays soluble; pooled small domains, quantitative proteomics. The settings on record: stress: pH 4. The procedure, abridged: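 With high-throughput quantitative proteomics, pooled custom libraries of small protein domains were measured after pH 4 stress. Each domain's soluble amount after the stress gives a fold change taken as aggregation propensity. Higher log2 values mean more of the domain stayed soluble.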
For the sequence “HMAAADLNMRAKLADLGGMSYGELSIWEKTHGMEFAAWEHEWEKLNSGTQADGLKFPKHLPEGFPT”, the “soluble fraction (log2)” value came out at 0.116.
As for “HMAAAKDVMDWQNAIRGLTDAKGKPYSPTYLKTVHNQLSALFNHAVRYYGLQVNPAAKAGNMGVEE”, the “soluble fraction (log2)” value came out at 0.00664.
The figure for “HMAADDGSARAEQLREMYSLISGLDKLDKAIILMWLDERSYDEIAEVTGFTRNNVATRLHRIKSRLARQSN” is -1.19; for “HMAAEIGSGVVDAYDLRLRSQPSTDAETIIYLDNGAKLSVQEDLGDWYKVVSGTYTGYVSAEYVAYTPSPE” it is -1.7.
With “HMAAELHPYGADSYRGDNPPAGYEIKAKEESKKFHTPSSPWYGRTIAEIWFRTEEAAEAAGFINAVK” the figure was -0.272; with “HMAAELQALSVRELEVLDQLAGGASNREIAQRLYISENTVRNHVHSILTKLKLQNRTQLVGMT”, -0.705.
With “HMAAESWTEKSRALAAAGLVVMGRDAQTKIEELTNLAPLIEAANASNTRLLTSQSIDELLSIVPTEENL” the figure was -0.0379.
On to “HMAAGKGVTTGSVRLRKGSNTDSAIIATLKKDTELILYGKKDGWYSVKTSDGTEGFVSSKYVKVTEAY”, for which the “soluble fraction (log2)” value was -0.297.
The figure for “HMAAGLTPKQKAFADNYIKNGGNAAEAARAAGYSLKNVGANAGKLLKNPKIAAYIAEKQAELDRRNGT” is -0.13; for “HMAAINPSALREPATPPEQLSAGDSVLHPRFGRGEILELQQQGGDPRAIVQFINEPKPRTLVLRYAQLRK” it is 0.0977.
On to “HMAAKADAVKKAIAAIGKVDASEDSKAKVEAARKAYAALTEDQKKLVEASQLKLLTEAEAAYQQAVEESKK”, for which the “soluble fraction (log2)” value is -0.0736.
With “HMAAMSLGERIGAHRKRMGISQEELGHRMGVSRQAVSKWETGRAVPDMENLLALARLFGVPVSELAD” the figure was -0.0628.
As for “HMAAPVGLTQRQMEVAALVADGLTNAEIGRRLHITERSAESHLERVRIRLGFRSRAQVAAWFVTQE”, the “soluble fraction (log2)” value is -0.493.
The figure for “HMAATHYEGIKQDGETDDAVIERVLTGLSVTANKDDIFIVKTLIAGTKYSYTAYVYNGNAWAAM” is -0.255; for “HMAATSTGFPGVEVRGNSIRVFFMYKRDRHAHTLPLEPTRNNIKHADQLRSAALFALRNGTYNEADFFPHS” it is -0.509; for “HMAATVKVPDLTKMTPDEAQRALGQVGLKGKQGDDVDDDSVPVGYIAKQDEAPNSDAKAGDTITYHL” it is 0.171.
The figure for “HMAAVSSHAVKQRIRSLIQAEDPASPLSDEALRLALSALGVEVSRRAVAKYRTSMDIPASSQRKK” is 0.238.
With “HMADEDTILALAKEILASWPDKVEAYKNGNKGMLGLFMGELMKKSGGKANPKSASALIQKLLE” the figure was -0.231; with “HMADEIQLVVQVNGKLRGRIMVAPDASREEIEKTALADADVSRFLGDTPVKKVIIVPKRLVNIVAPAPK”, 0.0692; with “HMADENIELRKAGLKVTLPRVKILQILEAAKEPHMSAEDVYKALMEANEEVGLATVYRVLTQFESAGL”, -0.232.
“HMADGKWTLTDAGYTFTYSDGRKARGTWEDIDGEWYHFDRNGIMETGWKTVGNIRYHFNQDGSL”: the “soluble fraction (log2)” value is -0.363.
Regarding “HMADIGRMKELIDILNRASAVYYQGKDEIMSNFEYDKLYDELVSLEKESGLVLAGSPTQKVGY”, the “soluble fraction (log2)” value was -0.0716.
For “HMADKHVAAALLKLMDHLVGGRQYAFMKGRLTINKKVVLEATEVSAYRRGTGLSDADWQQRYE”, the “soluble fraction (log2)” value was -0.978.
For “HMADLKRLNEQIHYLGQYLSTKATYKEFLQANNKKIYRSEHQDEIAKYEEAAQFLKRSSPDGTIPTMKDLR”, the “soluble fraction (log2)” value worked out at 0.0861.
Turning to “HMADLSAYAGKEGMTDSVLRPSGKVDIEGHILDAVSRGDFIEKGKRVIVIKAEGSYLVVKKRMP”, the “soluble fraction (log2)” value was 0.166.
The figure for “HMADLTEEQKTLFRLIRDLQPVSSKTLLENSGFTRSTQTRLLNGLIEKQIVIRTGNGPATRYSLR” is -0.307.
With “HMADLTIDGVEYTKVSPTGTLTLEKVYTKNVTPADGQYYIQTGTKTVRVATDAEVAVIKAGGF” the figure was 0.247; with “HMADNKDMQAAFMEALNGLKEYAKVNGNIVTKEDVNSYFKDMHLDDNKYSMITGYLMANGITIKG”, -0.432; with “HMADPRFHSEIMLSKIESLLSGKADSDVSNYSIQGRSLTKMSLQELMDARESYDGLVKSEKAKLDAKY”, -0.218.
The figure for “HMADPVTPQDLIRWSEALAGIARTGLGFTQSLYEQERFEEVLAVAADMRVAAGSSYNPDDLVHEWMKSVG” is -0.34; for “HMADQVVGQLGMVTQRIDNLQQTGRVSANGLDWAARSENGQPIPQGMPVEVLRIEGVKLIVRPVN” it is -0.00119; for “HMADTIEVVVQVNGKVRAKISTSPEVFADSTKLQELALADANVQKFIAGQTIRKVIIPKGTKLLNIV” it is -0.55.
Consider “HMADTSPEGVQKLIKAFEQFGVSKDDIEGFIQRRVDAITPANVVSLRKIFTSLRDGMSSAKDWFKGA”, for which the “soluble fraction (log2)” value is -0.325.
The figure for “HMADVIKLVNTSVLNVRSGAGINYSKIGSLTQGTKVNIISESNGWSKINYNGKIGYISSQYVSEVS” is 0.324.
Take “HMADVLLKHGSSGDYVWDLQYRLKTLSLFDQEMTGYFGPHTRQAVVNFQRKYGLPADGVVGPATWRALRK”: the “soluble fraction (log2)” value was -0.551.
With “HMADVPSTIFEAYRILGLNPEAPPVAVKKVVDALRMSWHPDHARSEPDRRHREERIKQINAAWDLLKGV” the figure was -0.128.
In the case of “HMADVYFDGKFLGETPVTVAVSTTGKPAHEISLIRGGYEPWSTTYQGNPRPGQTATVMAILVHA”, the “soluble fraction (log2)” value was -0.121.
With “HMAEAAVELSQQILARLLEAGGSLPLSDKSSPEDIHRLFGVSKRTFKKAIGGLYKKGLILIHPERIELP” the figure was -0.0448; with “HMAEAETVKFVGNSLLLVSGAAKGERLSVYTVGGQHVLSADATKPVDVAALHSGVYVVRTTNGVITKIVK”, 0.0831; with “HMAEATATVTASEMVVRSGPSSSYSVLGSLEKGTVVTVLAASDGIAKISYKGNTGYARIVDMELNSA”, 0.37.
The figure for “HMAEDDAVQKAVREAVAESADAVADYKAGSERALNFIVGVVMKKTRGKASPGEVHRLVKAEVEK” is 0.143; for “HMAEDLRTLDGIDEDLLRDLAQAGITTRDGLAELSIDELREITGVEPGEAEKIILAARAHWFETDE” it is -1.19.
On to “HMAEEGEQAASNTAAQAEDRAAELAAAGEKGKQITKTLVAEFGIPKNEAYRLALDAVAAVKAER”, for which the “soluble fraction (log2)” value is -0.427.
With “HMAEEPLRIWTDLQGRSIEASFIKFSGNNIVIKMKSGRDYEVARSLFSPGDQKYLSDLKKSTPE” the figure was -0.0706; with “HMAEERVLSVPQSLAGERLDAALASLMPDYSRSRLASWIKEGLVTVDGAGAMPKQKLWGGETLRVQAQPT”, 0.0973; with “HMAEKAVELTENEKAIQTILSNGALEIGELKTKLELSGKQWDVALKGLAKHGITQVSKVEGVVTVGL”, 0.124.
The figure for “HMAEKGIGRVNADWLNMRTSPGGEVLTVLKQGTELQVIGRSGSWLEVQHGNEQGYVSSRYITIQP” is 0.132; for “HMAEKVIVVADSITVGELAEKLNLPVTNLIGELFKNGIVSTINQRIDFETASIIVEELGLDVELERK” it is -0.96; for “HMAELNLPVRKIGGEDYYYRQVKKKETIYGISKELGITKEDIIKYNPSVASGLQRNQILYFPVKDFK” it is 0.322.
The figure for “HMAELVISVKADGTIHYQDRQLTKEALAAVLETRPEALLNLYVDEKAPFEAFVGVVDIARLKRGGHFVIST” is -0.947; for “HMAENPAYTKGVVNRLYKIRATPYYSYSYNVDQKTYEGRGKQYGEYENLHIGDTITVYYQRSNPSNSEA” it is -0.112; for “HMAEPIEKIIIEGNQRIEALTIQSYLLLRVGEPFNRQLMNQTLKSLYATGYFSDVAVTRVSSSLLVK” it is -0.0595.
For “HMAEPLEIGDTVRIIDGFYGGEIGVISELVNPDAKNAEFEQVRVRLDQDTELALPIHNVERVRL”, the “soluble fraction (log2)” value is -0.0894.
The figure for “HMAEPRVQEVYFEFDGKQVEAGQVVSLIEQAYKNEGHQIGRIKDLKVYINSEEGKAYYVINGDDGEGKYIE” is -0.67; for “HMAESLHVTAAALFEGRAMLGIDGSRRLLRVGETSPEGVKLVSATAREAVIEIDGRRQTLAPGRDT” it is 0.0589.
For “HMAESSLPKMPRDESKYIYHSVQPGETVYSLSKRYSVSESDIVKSNPGIDITKLSLGLEVAIPRI”, the “soluble fraction (log2)” value amounted to 0.0402.
The figure for “HMAEVAFEEQNIEQISNLLLRIQAIFAELMTALDKEKGGEIADNLERLYVFFLEKLGDANVRKDPAP” is -0.135; for “HMAEVHVDGVTYQFSNPEQAVKFARKIAKELGLKVEVHGETVHVK” it is 0.0901.
With “HMAEVTLTVREQEVLHLLARGMSNGEMAAHLYVEPTTIKYHLTGLLQKTGSRDRLQAVLWGIRAGMVH” the figure was -1.15; with “HMAEWIYGKNVVKQSIEEGMVLKLILQRKEDPLFVLAQEKQIPVEILDRHKMTSLVKSDRHQGVAAQI”, -0.645.
“HMAFEDYAGEYRSAADFAESLHEDTGTEIPESLRYYIDWQALARDMALNGEIMVFQTGFDEVHIFWS”: the “soluble fraction (log2)” value is -0.878.
As for “HMAFEITSAERTRLEDIARKGLTAYTAEWKQLPASEKKALNKTGLQDFLKSMAADADSAREEEA”, the “soluble fraction (log2)” value was found to be 0.0412.
With “HMAFKEQLKAARLAKGYTQEQLATAIGVAKSTFTGYEKGNSEPNMLTIKKLMEILEVDANYLWY” the figure was -1.44; with “HMAFRWQQIADTITSMIANGSYPRGSRLPTEAALADSFGVNRHTVRRAVAALRDTGLVQPRQGAGVFVIG”, -0.103; with “HMAFYQDIAVDLRKQIIDGVYPKNSRLPNQAELAKLYTTSRVTIQKALKILQIEGLIEGRQGSGSYVKGP”, 0.0757.
With “HMAGHKVDFSELPARSQAFIGKNFPTEMVKNVEMERKDAKDHYTVLLSNGTKVMFDGTSGELTGV” the figure was 0.0825; with “HMAGISQGLAENVERRITTLLREQKEVPVHDIDFPGISRETVGQVLHQMVQEEKLLLDDGMISLSPNQ”, -0.229.
With “HMAGPAGASEVANARDGDDETPLHMAARGGYPGIVRMLLAAGAKADAKSAAGLFPWNYAEDGSELHALLPR” the figure was -0.0731.
Turning to “HMAGPTIVTNSQGVPNYHLVKRGDTVSQIAQRYGLNYRQIGAINNLDSKYTIYSGQWLKLWQG”, the “soluble fraction (log2)” value was -0.00755.
